In experiment [1] the target is T1, human DR4 (Death Receptor 4), cell surface expressed on human tumor cell lines (human, UniProt O00220 24-468).
T1 construct: also called TNFRSF10A; TRAIL-R1
T1 sequence: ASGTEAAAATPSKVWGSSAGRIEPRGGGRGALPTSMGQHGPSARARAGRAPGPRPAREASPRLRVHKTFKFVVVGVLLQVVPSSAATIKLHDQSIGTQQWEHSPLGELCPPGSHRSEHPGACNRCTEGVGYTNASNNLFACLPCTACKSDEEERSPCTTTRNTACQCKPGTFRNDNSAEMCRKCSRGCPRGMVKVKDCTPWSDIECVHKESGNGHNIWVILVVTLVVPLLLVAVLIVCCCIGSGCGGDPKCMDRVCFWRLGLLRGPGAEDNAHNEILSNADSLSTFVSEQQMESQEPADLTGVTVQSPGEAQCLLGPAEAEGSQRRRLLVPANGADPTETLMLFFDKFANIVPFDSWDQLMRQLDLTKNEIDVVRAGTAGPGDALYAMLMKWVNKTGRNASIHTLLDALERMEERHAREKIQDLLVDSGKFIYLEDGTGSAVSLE
Kind of experiment: flow cytometry, A549 cells, n = 3. In general terms: A flow cytometer gives signals particle by particle.

Experiment [2] addresses T1, human DR4 (Death Receptor 4), cell …. The experiment is described as follows: flow cytometry, PANC-1 cells, average ± SEM.
Experiment [3] has the same target. The experiment is described as follows: flow cytometry, HCT-15 cells, n = 1.
For experiment [4], the target named is T2, pig FAPα on Expi293F cells (pig (Sus scrofa), UniProt A5D7B7 1-760 (bovine entry)).
T2 chain: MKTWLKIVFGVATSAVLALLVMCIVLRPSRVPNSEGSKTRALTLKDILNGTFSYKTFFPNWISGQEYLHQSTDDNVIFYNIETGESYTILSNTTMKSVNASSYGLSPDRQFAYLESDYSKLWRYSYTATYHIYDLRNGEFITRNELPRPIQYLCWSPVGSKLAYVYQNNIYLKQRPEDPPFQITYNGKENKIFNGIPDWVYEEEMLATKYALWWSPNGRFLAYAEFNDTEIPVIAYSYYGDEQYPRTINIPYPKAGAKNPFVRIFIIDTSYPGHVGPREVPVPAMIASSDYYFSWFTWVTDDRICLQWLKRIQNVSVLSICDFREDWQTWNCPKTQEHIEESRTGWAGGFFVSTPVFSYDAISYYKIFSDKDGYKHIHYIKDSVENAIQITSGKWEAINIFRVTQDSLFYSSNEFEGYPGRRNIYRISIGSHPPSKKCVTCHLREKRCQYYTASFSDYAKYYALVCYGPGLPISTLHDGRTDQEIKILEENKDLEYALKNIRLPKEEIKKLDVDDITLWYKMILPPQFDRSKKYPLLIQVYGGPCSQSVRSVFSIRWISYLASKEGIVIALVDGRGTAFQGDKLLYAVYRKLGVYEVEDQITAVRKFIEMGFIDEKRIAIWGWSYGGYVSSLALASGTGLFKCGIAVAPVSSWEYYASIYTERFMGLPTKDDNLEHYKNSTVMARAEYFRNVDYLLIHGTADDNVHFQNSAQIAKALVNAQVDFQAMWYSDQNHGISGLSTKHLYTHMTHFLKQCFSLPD
The experiment is described as follows: flow cytometry on Expi293F cells transiently expressing pig FAPα, gMFI PE. The procedure: Binding of BisG1-FAPα-FERL/DR4-FERR, BisG1-FAPα-FEAL/b12-FEAR and IgG1-FAPα-FERL to FAPα of species commonly used for nonclinical toxicology studies was assessed by flow cytometry using Expi293F cells transiently expressing FAPα from different animal species. IgG1-b12 was included as negative control.
Expi293F cells expressing recombinant FAPα from various species (human, cynomolgus monkey, dog, pig, rat or mouse) were seeded (20,000 cells/well) in 96-Well round bottom plates (Greiner Bio-one, Cat #650101). Antibody dilutions were prepared using FACS buffer, consisting of PBS (Capricorn Scientific, Cat #PBS-10XA, diluted to 1×PBS in distilled water)+1% BSA (Roche, Cat #10735086001)+0.02% Sodium Azide (Bio-World, Cat #41920044-3). Plates were centrifuged, supernatant was removed, and cells were resuspended in 100 μL of antibody dilutions (concentration range 30-0.00017 μg/mL with three-fold serial dilutions using FACS buffer) of BisG1-FAPα-FERL/DR4-FERR, BisG1-FAPα-FEAL/b12-FEAR, IgG1-FAPα-FERL and IgG1-b12 and incubated for 30 min at 4° C. […] After 30 min incubation at 4° C., cells were washed with FACS buffer and resuspended in FACS buffer supplemented with TO-PRO-3 Iodide viability marker (Invitrogen, Cat #T3605, diluted 1:4,000). Antibody binding to viable cells (gMFI of PE on TO-PRO-3 negative cells) was analyzed by flow cytometry on a FACS Celesta and FACS_Diva software (first two experiments) or iQue® 3 and FlowJo software (last experiment). gMFI was determined and visualized using GraphPad Prism. Binding curves were analyzed using nonlinear regression analysis. The concentration (pg/mL) at which 50% of the maximal effect was observed (EC₅₀) was derived from the fitted curves.

Changes are numbered by the printed parent chain.

A word on the EC50: it is the midpoint of the concentration-response curve. Low readings indicate a more potent agent, high ones a less potent agent. By EC50 (read off the curve) is commonly meant the concentration that produces a half-maximal response. Lower therefore signals higher potency in that assay.

B1: IgG1-DR4-FERR (antibody, V domains shown)
VH: QVQLQESGPGLVKPSGTLSLTCAVSGGSISSYSWWSWIRQPPGKGLEWIGELYHSGSTNYNPSLKSRVTISVDKSKNQFSLKLRSVTAADTAVYYCVRGVATIDYWGQGTLVTVSS
VL: QSALTQPPSASGSPGQSVTISCTGTSSDVGGYNFVSWYQQDPGKAPKLLIYEVTKRPSGVPDRFSGSKSGNTASLTVSGLQAEDEADYYCSSYAGSNNVMFGGGTKLTVLG
notes: Bivalent monoclonal IgG1 lambda
Regarding B1, the EC50 in experiment [1] was 0.21 µg/mL; in experiment [2] it was 0.49 µg/mL; in experiment [3] it was 0.18 µg/mL.

B2: BisG1-FAPα-FERL/DR4-FERR (bispecific antibody, human IgG1, kappa, lambda)
heavy 1: EVQLLESGGGLVQPGGSPRLSCEASGFTFSSYALSWVRQAPGKGLEWVSAISGSGGGRYYADSVKGRFTISRDNSKNTLFLQMNSLRAEDTAVYYCAKEGYSSSGTYWDHWGQGTLVTVSSASTKGPSVFPLAPSSKSTSGGTAALGCLVKDYFPEPVTVSWNSGALTSGVHTFPAVLQSSGLYSLSSVVTVPSSSLGTQTYICNVNHKPSNTKVDKRVEPKSCDKTHTCPPCPAPEFERGPSVFLFPPKPKDTLMISRTPEVTCVVVDVSHEDPEVKFNWYVDGVEVHNAKTKPREEQYNSTYRVVSVLTVLHQDWLNGKEYKCKVSNKALPAPIEKTISKAKGQPREPQVYTLPPSREEMTKNQVSLTCLVKGFYPSDIAVEWESNGQPENNYKTTPPVLDSDGSFLLYSKLTVDKSRWQQGNVFSCSVMHEALHNHYTQKSLSLSPG
light 1: AIQMTQSPSSVSASVGDRVTITCRASQGVSSWLAWYQQKPGRAPKLLIYVASTLQSGVPSRFSGSGSGTDFTLTINSLQPEDFATYYCQQANSFPPTFGQGTRLEMKRTVAAPSVFIFPPSDEQLKSGTASVVCLLNNFYPREAKVQWKVDNALQSGNSQESVTEQDSKDSTYSLSSTLTLSKADYEKHKVYACEVTHQGLSSPVTKSFNRGEC
heavy 2: QVQLQESGPGLVKPSGTLSLTCAVSGGSISSYSWWSWIRQPPGKGLEWIGELYHSGSTNYNPSLKSRVTISVDKSKNQFSLKLRSVTAADTAVYYCVRGVATIDYWGQGTLVTVSSASTKGPSVFPLAPSSKSTSGGTAALGCLVKDYFPEPVTVSWNSGALTSGVHTFPAVLQSSGLYSLSSVVTVPSSSLGTQTYICNVNHKPSNTKVDKRVEPKSCDKTHTCPPCPAPEFERGPSVFLFPPKPKDTLMISRTPEVTCVVVDVSHEDPEVKFNWYVDGVEVHNAKTKPREEQYNSTYRVVSVLTVLHQDWLNGKEYKCKVSNKALPAPIEKTISKAKGQPREPQVYTLPPSREEMTKNQVSLTCLVKGFYPSDIAVEWESNGQPENNYKTTPPVLDSDGSFFLYSRLTVDKSRWQQGNVFSCSVMHEALHNHYTQKSLSLSPG
light 2: QSALTQPPSASGSPGQSVTISCTGTSSDVGGYNFVSWYQQDPGKAPKLLIYEVTKRPSGVPDRFSGSKSGNTASLTVSGLQAEDEADYYCSSYAGSNNVMFGGGTKLTVLGQPKAAPSVTLFPPSSEELQANKATLVCLISDFYPGAVTVAWKADSSPVKAGVETTTPSKQSNNKYAASSYLSLTPEQWKSHRSYSCQVTHEGSTVEKTVAPTECS
notes: Human IgG1 bispecific made by controlled Fab-arm exchange of IgG1-FAPα-FERL and IgG1-DR4-FERR; monovalent for FAPα and for DR4; also called GEN1057
Turning to B2, the values for the EC50 in experiment [1], in experiment [2] and in experiment [3] were 0.87 µg/mL, 1.7 µg/mL and 0.59 µg/mL, respectively. Further, the binding result in experiment [4] is recorded as “binds”.

B3: IgG1-FAPα-FERL (antibody)
heavy: B2 heavy 1
light: B2 light 1
notes: Bivalent monoclonal IgG1 kappa
For the molecule B3, in experiment [4], the “EC50 (read off the curve)” value was approximately 0.3 µg/mL.

B4: BisG1-b12-FERL/DR4-FERR (bispecific antibody, human IgG1, kappa, lambda)
heavy 1: QVQLVQSGAEVKKPGASVKVSCQASGYRFSNFVIHWVRQAPGQRFEWMGWINPYNGNKEFSAKFQDRVTFTADTSANTAYMELRSLRSADTAVYYCARVGPYSWDDSPQDNYYMDVWGKGTTVIVSSASTKGPSVFPLAPSSKSTSGGTAALGCLVKDYFPEPVTVSWNSGALTSGVHTFPAVLQSSGLYSLSSVVTVPSSSLGTQTYICNVNHKPSNTKVDKRVEPKSCDKTHTCPPCPAPEFERGPSVFLFPPKPKDTLMISRTPEVTCVVVDVSHEDPEVKFNWYVDGVEVHNAKTKPREEQYNSTYRVVSVLTVLHQDWLNGKEYKCKVSNKALPAPIEKTISKAKGQPREPQVYTLPPSREEMTKNQVSLTCLVKGFYPSDIAVEWESNGQPENNYKTTPPVLDSDGSFLLYSKLTVDKSRWQQGNVFSCSVMHEALHNHYTQKSLSLSPG
light 1: EIVLTQSPGTLSLSPGERATFSCRSSHSIRSRRVAWYQHKPGQAPRLVIHGVSNRASGISDRFSGSGSGTDFTLTITRVEPEDFALYYCQVYGASSYTFGQGTKLERKRTVAAPSVFIFPPSDEQLKSGTASVVCLLNNFYPREAKVQWKVDNALQSGNSQESVTEQDSKDSTYSLSSTLTLSKADYEKHKVYACEVTHQGLSSPVTKSFNRGEC
heavy 2: B2 heavy 2
light 2: B2 light 2
notes: Fab-arm exchange of IgG1-b12-FERL and IgG1-DR4-FERR; also called bsIgG1-ctrl-FERLxDR4-FERR
In the case of B4, the half-maximal effective concentration (EC50) worked out at 0.78 µg/mL in experiment [1], 1.63 µg/mL in experiment [2] and 0.59 µg/mL in experiment [3].

B5: BisG1-FAPα-FEAL/b12-FEAR (bispecific antibody, human IgG1, kappa)
heavy 1: B2 heavy 1 with R240G, D269A
light 1: B2 light 1
heavy 2: B4 heavy 1 with R246G, D275A, L415F, K419R
light 2: B4 light 1
notes: Fab-arm exchange of IgG1-FAPα-FEAL and IgG1-b12-FEAR
With B5, the binding result in experiment [4] is “binds”.
